What was measured:
ECF-PanT = system: T1, ECF-PanT; assay: initial rate of radiolabelled uptake into proteoliposomes; format: biochemical, Lactobacillus delbrueckii subsp. bulgaricus; details: 5 mM lumenal Mg-ATP, pH 7.5, 30 °C; labelled compound (3H tracer); read-out: apparent Km
T1 construct: four-subunit complex, 10xHis-TEV on EcfA, Strep on PanT; expressed in E. coli MC1061; purified in DDM, reconstituted in proteoliposomes; ~120 kDa; Energy-coupling factor transporter transmembrane protein EcfT

ECF-FolT2 = system: T2, ECF-FolT2; assay: as above; format: biochemical, Lactobacillus delbrueckii subsp. bulgaricus; details: 10 mM lumenal Mg-ATP, pH 7.5, 30 °C; labelled compound (3H tracer); read-out: apparent Km
T2 construct: four-subunit complex, 10xHis-TEV on EcfA, Strep on FolT2; expressed in E. coli MC1061; purified in DDM, reconstituted in proteoliposomes; ~120 kDa; Energy-coupling factor transporter transmembrane protein EcfT

[1] = molecular target: T3, ECF-PanT (whole pantothenate transporter complex: EcfA, EcfA', EcfT, PanT) (Lactobacillus delbrueckii subsp. …); assay: crystal structure; ECF-PanT-Nanobody 81 complex at 5 mg/mL with 5 mM MgATPγS; 70 mM sodium citrate pH 4.5, 22% (v/v) PEG300, 5°C; 2.8 Å, space group P1, two copies of the complex in the asymmetric unit; details: both partners purified
T3 construct: Four subunits, Mw ~120 kDa as printed for a full ECF-transporter complex; source: SEC in DDM; copies: + + +
T3 chain 1: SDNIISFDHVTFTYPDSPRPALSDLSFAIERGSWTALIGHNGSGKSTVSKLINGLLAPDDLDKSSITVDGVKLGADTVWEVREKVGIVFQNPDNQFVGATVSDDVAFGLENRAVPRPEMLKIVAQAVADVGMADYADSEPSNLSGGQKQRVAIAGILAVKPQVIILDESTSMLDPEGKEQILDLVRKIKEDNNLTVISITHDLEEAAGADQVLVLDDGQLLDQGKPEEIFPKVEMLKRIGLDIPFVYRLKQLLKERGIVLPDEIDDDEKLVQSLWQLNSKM
T3 chain 2: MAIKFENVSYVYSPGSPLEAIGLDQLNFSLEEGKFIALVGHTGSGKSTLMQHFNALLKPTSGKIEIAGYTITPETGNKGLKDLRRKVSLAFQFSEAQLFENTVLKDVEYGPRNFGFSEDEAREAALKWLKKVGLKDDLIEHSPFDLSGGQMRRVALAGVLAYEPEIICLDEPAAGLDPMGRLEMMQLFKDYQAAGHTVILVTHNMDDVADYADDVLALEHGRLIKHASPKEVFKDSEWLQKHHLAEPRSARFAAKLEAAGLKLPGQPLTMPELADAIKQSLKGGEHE
T3 chain 3: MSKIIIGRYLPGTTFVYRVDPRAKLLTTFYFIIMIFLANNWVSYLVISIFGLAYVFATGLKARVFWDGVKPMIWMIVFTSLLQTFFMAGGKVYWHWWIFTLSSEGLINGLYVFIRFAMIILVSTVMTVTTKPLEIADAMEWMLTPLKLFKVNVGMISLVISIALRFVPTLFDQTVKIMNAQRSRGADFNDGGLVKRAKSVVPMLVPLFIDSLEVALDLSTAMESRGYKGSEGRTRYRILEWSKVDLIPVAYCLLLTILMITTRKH

[2] = substrate: Nc1ncnc2c1ncn2[C@@H]1O[C@H](COP(=O)(O)OP(=O)(O)OP(=O)(O)O)[C@@H](O)[C@H]1O; assay: initial rate of radiolabelled pantothenate uptake into proteoliposomes at varied lumenal ATP; format: biochemical, Lactobacillus delbrueckii; details: 100 nM pantothenate, Mg2+, pH 7.5, 30 °C, sigmoidal, cooperative
[3] = substrate: Nc1ncnc2c1ncn2[C@@H]1O[C@H](COP(=O)(O)OP(=O)(O)OP(=O)(O)O)[C@@H](O)[C@H]1O; assay: initial rate of radiolabelled folate uptake into proteoliposomes at varied lumenal ATP; format: biochemical, Lactobacillus delbrueckii; details: 100 nM folate, Mg2+, pH 7.5, 30 °C, sigmoidal, cooperative

Molecule `CC(C)(CO)[C@@H](O)C(=O)NCCC(=O)O` [pantothenate] has a Km (ECF-PanT) of 0.046 ± 0.011 µM.

Molecule `Nc1nc2ncc(CNc3ccc(C(=O)N[C@@H](CCC(=O)O)C(=O)O)cc3)nc2c(=O)[nH]1` [folate] has a Km (ECF-FolT2) of 0.082 ± 0.02 µM.

B1: nanobody CA14381 (Nb81) (VHH)
VHH: QVQLVESGGGLVQPGGSLRLSCTASGFTLDDYAIGWFRQAPGKEREGISCISRSGSSTTYADSVKGRFTISRDRAENTVYLQMNSLKPEDTADYYCAATPVWYWSCAVKVGPYDYWGQGTQVTVSS
notes: the nanobody chain of PDB 6ZG3 (solved here); Llama (Lama glama) nanobody selected by phage display against ECF-PanT; Cloned in a Golden Gate variant of pMESy4 (GenBank KF415192); also called nanobody 81; Nanobody 81; source: E. coli WK6 periplasm, purified (Ni-Sepharose, desalting)
B1: binds [1].

B2: ECF-PanT (Lactobacillus delbrueckii subsp. bulgaricus ATCC 11842 = JCM 1002) (protein)
chain 1: MSDNIISFDHVTFTYPDSPRPALSDLSFAIERGSWTALIGHNGSGKSTVSKLINGLLAPDDLDKSSITVDGVKLGADTVWEVREKVGIVFQNPDNQFVGATVSDDVAFGLENRAVPRPEMLKIVAQAVADVGMADYADSEPSNLSGGQKQRVAIAGILAVKPQVIILDESTSMLDPEGKEQILDLVRKIKEDNNLTVISITHDLEEAAGADQVLVLDDGQLLDQGKPEEIFPKVEMLKRIGLDIPFVYRLKQLLKERGIVLPDEIDDDEKLVQSLWQLNSKM
chain 2: MAIKFENVSYVYSPGSPLEAIGLDQLNFSLEEGKFIALVGHTGSGKSTLMQHFNALLKPTSGKIEIAGYTITPETGNKGLKDLRRKVSLAFQFSEAQLFENTVLKDVEYGPRNFGFSEDEAREAALKWLKKVGLKDDLIEHSPFDLSGGQMRRVALAGVLAYEPEIICLDEPAAGLDPMGRLEMMQLFKDYQAAGHTVILVTHNMDDVADYADDVLALEHGRLIKHASPKEVFKDSEWLQKHHLAEPRSARFAAKLEAAGLKLPGQPLTMPELADAIKQSLKGGEHE
notes: with Energy-coupling factor transporter transmembrane protein EcfT; Pantothenate ECF transporter S component PanT
Work on B2 yielded a Km [2] of 5600 ± 1000 µM.

B3: ECF-FolT2 (Lactobacillus delbrueckii subsp. bulgaricus ATCC 11842 = JCM 1002) (protein)
chain 1: MSDNIISFDHVTFTYPDSPRPALSDLSFAIERGSWTALIGHNGSGKSTVSKLINGLLAPDDLDKSSITVDGVKLGADTVWEVREKVGIVFQNPDNQFVGATVSDDVAFGLENRAVPRPEMLKIVAQAVADVGMADYADSEPSNLSGGQKQRVAIAGILAVKPQVIILDESTSMLDPEGKEQILDLVRKIKEDNNLTVISITHDLEEAAGADQVLVLDDGQLLDQGKPEEIFPKVEMLKRIGLDIPFVYRLKQLLKERGIVLPDEIDDDEKLVQSLWQLNSKM
chain 2: MAIKFENVSYVYSPGSPLEAIGLDQLNFSLEEGKFIALVGHTGSGKSTLMQHFNALLKPTSGKIEIAGYTITPETGNKGLKDLRRKVSLAFQFSEAQLFENTVLKDVEYGPRNFGFSEDEAREAALKWLKKVGLKDDLIEHSPFDLSGGQMRRVALAGVLAYEPEIICLDEPAAGLDPMGRLEMMQLFKDYQAAGHTVILVTHNMDDVADYADDVLALEHGRLIKHASPKEVFKDSEWLQKHHLAEPRSARFAAKLEAAGLKLPGQPLTMPELADAIKQSLKGGEHE
notes: with Energy-coupling factor transporter transmembrane protein EcfT; Folate ECF transporter S component FolT2
B3 showed a Km [3] of 5600 ± 1700 µM.

Source: PMC7755397, “In vitro reconstitution of dynamically interacting integral membrane subunits of energy-coupling factor transporters” (eLife, 2020)
